Measurements taken from publication PMC4315436.

Molecular target: LGF2
Test: two-hybrid; BacterioMatch II bacterial two-hybrid in E. coli reporter cells; bait in pBT as λcI fusion, prey in pTRG as RNAPα fusion; 30 ng each of bait and prey vector; HIS3 reporter, cfu on selective screening medium with 3-AT; three repeats, mean ± 1 SD

cfu on selective screening medium (with 3-AT): 1000 cfu
Substance: Gal11^P (domain or fragment)
